Data from patent publication US20210130420A1, “RECOMBINANT BINDING PROTEINS TARGETING HER2 AND SERUM ALBUMIN, AND THEIR USES” (Molecular Partners AG, priority 2016, published 2021).
Residue numbers refer to the chain shown, from its start. “Also recorded” adds a separate entry of the source.

B1: Protein #14-His: SEQ ID NO: 14 with a His-tag; stability-improved serum albumin binding designed ankyrin repeat domain, aspartate 80 of SEQ ID NO: 13 mutated to glutamate (protein)
chain: GSDLGKKLLEAARAGQDDEVRELLKAGADVNAKDYFSHTPLHLAARNGHLKIVEVLLKAGADVNAKDFAGKTPLHLAANEGHLEIVEVLLKAGADVNAQDIFGKTPADIAADAGHEDIAEVLQKAA
modifications: His-tag; Designed ankyrin repeat domain
B2: Protein #13-His: SEQ ID NO: 13 with a His-tag; designed ankyrin repeat domain with binding specificity for serum albumin (WO2012/069654) (protein)
chain: B1 chain with E80D
modifications: His-tag; Designed ankyrin repeat domain
B3: Protein #21-His: SEQ ID NO: 21 with a His-tag (SEQ ID NO: 1) fused to its N terminus (protein)
chain: MRGSHHHHHHGSDLGKKLLEAARAGQDDEVRELLKAGADVNAKDYFSHTPLHLAARNGHLKIVEVLLKAGADVNAKDFAGKTPLHLAANEGHLEIVEVLLKAGADVNAQDIFGKTPADIAADAGHEDIAEVLQKAAGSPTPTPTTPTPTPTTPTPTPTGSDLGIKLLFAAAKGQDDEVRELLKAGADVNAKDFQGVTPLHIAAQSGHLEIVEVLLKAGADVNAKDVTGDTPLHLAAQHGHLEIVEVLLKAGADVNAQDERGWTPADLAADWGHEDIAEVLQKAAGSPTPTPTTPTPTPTTPTPTPTGSDLGKKLLEAARAGQDDEVRELLKAGADVNAKDEYGLTPLYLATAHGHLEIVEVLLKAGADVNAVDAIGFTPLHLAAFIGHLEIAEVLLKAGADVNAQDKFGKTPADIAAGAGNEDIAEVLQKAAGSPTPTPTTPTPTPTTPTPTPTGSDLGKKLLEAARAGQDDEVRELLKAGADVNAKDYFSHTPLHLAARNGHLKIVEVLLKAGADVNAKDFAGKTPLHLAANEGHLEIVEVLLKAGADVNAQDIFGKTPADIAADAGHEDIAEVLQKAA
modifications: Protein comprising four designed ankyrin repeat domains

Experiments:
[1] = Thermal unfolding, midpoint of thermal denaturation; type: physicochemical; details: pH 6.0
Excerpt: Degradation may for example occur in the vicinity of any one of the 5 asparagines (including asparagine-glycine dipeptides), 13 aspartates, or 10 glycines of SEQ ID NO: 13, amongst additional potential degradation sites. SEQ ID NO: 13 further comprises a number of potential oxidation sites. […] When mutating aspartate at position 80 of SEQ ID NO: 13 to glutamate, a functional designed ankyrin repeat domain with binding specificity for serum albumin was generated, corresponding to SEQ ID NO: 14, which does show a marked improvement in storage stability (Example 3; FIGS. 2A and 2B).

[2] = Storage stability in PBS analysed by SDS-PAGE; type: physicochemical
Description: “Improved storage stability” in the context of the present invention means the reduction of the amounts of a degradation band, preferably the reduction of the amount of degradation products, as detected by a Coomassie-stained SDS-PAGE occurring after storage at 40° C. for 1 month at 10 mg/ml in PBS, by at least 5%, 10%, 15%, 20%, 25%, 30%, 35%, 40%, 45%, 50%, or 50%. Methods to assess storage stability by SDS-PAGE are well known to the person skilled in the art. Examples of designed ankyrin repeat domains and recombinant binding proteins with improved storage stability properties are given in Examples 2 and 3.
Protein #13-His, Protein #14-His and Protein #15-His were prepared as described in Example 1, and samples were concentrated to 10 mg/ml in PBS. Protein #14-His and Protein #15-His where then stored for 1 month at −80° C. or at 40° C. in glass vials, followed by analysis on SDS 15% PAGE. […] These findings illustrate that Protein #14-His has improved storage stability compared to Proteins #13-His and Protein #15-His.
A storage stability improvement is also observed, when testing the storage stability of Protein #21 and Protein #22 (recombinant binding proteins consisting of the amino acid sequences corresponding to SEQ ID NOs: 21 and 22, respectively). Protein #21 and Protein #22 are prepared as described in Example 1, samples are concentrated to 10 mg/ml in PBS and stored for 1 month at −80° C. in or at 40° C. in glass vials, followed by analysis on standard size-exclusion chromatography.

[3] = system: BT474 human breast carcinoma cells; test: BT474 breast cancer tumor xenograft mouse model; type: in vivo
Description: Protein #21-His, Protein #23-His, Protein #24-His, Protein #25-His were expressed and purified as described in Example 1. […] BT474 breast cancer tumor xenograft mouse models were essentially performed as follows using procedures well known to the person skilled in the art: BT474 human breast carcinoma cells were cultured, resuspended, and 2*10^7 cells in 200 μl RPMI 1640 medium containing 50:50 matrigel (BD Biosciences) per mouse were injected into the right flank of female Balb/c nude mice. […] Tumor volumes were measured for 32 days.
In a similar study using BT474 cells (identical setup and procedure; all 35 mg/kg doses), Protein #21-His was compared to Protein #23-His, Protein #24-His, and Protein #25-His.

[4] = Pharmacokinetic analysis in cynomolgus monkey; type: in vivo
Description: The measurements shown in this example are the result of a half-life engineering effort as described in Example 11. Protein #21-His, Protein #23-His, and Protein #24-His were expressed and purified as described in Example 1. The pharmacokinetic properties of the proteins were assessed in cynomolgus monkey. Proteins were administered via intravenous infusion for 30 min at a target dose level of between 1 mg/kg to cynomolgus monkeys. Blood samples were collected pre-dose and again at selected time points, for example 5 min, 10 min, 0.5 hours, 1 hour, 2 hours, 4 hours, 8 hours, 12 hours, 24 hours, 48 hours, 72 hours, 96 hours, 120 hours, 144 hours, 168 hours, 192 hours, 216 hours, and 240 hours post-end of infusion (i.e. post-injection). The blood samples were allowed to stand at room temperature and were centrifuged to generate serum, followed by storage at −80° C. pending analyses. Pharmacokinetic parameters were determined using procedures well known to the person skilled in the art. Serum concentrations of proteins were determined by sandwich ELISA using a rabbit monoclonal anti-designed ankyrin repeat domain antibody as capture reagent and murine monoclonal anti-designed ankyrin repeat domain antibody as detection reagent, and using a standard curve. Pharmacokinetic parameters were determined using standard software such as Phoenix WinNonLin (Certara, Princeton, USA) or Graph Pad Prism (GraphPad Software, La Jolla, USA) and standard analyses such as non-compartmental analyses. […] Target mediated clearance is well-known to the person skilled in the art and is known from e.g. antibodies targeting HER2.
Similarly, Protein #21-His was expressed and purified as described in Example 1. The pharmacokinetic properties of the proteins were assessed in cynomolgus monkey as described above at 1 mg/kg, 5 mg/kg and 10 mg/kg.
Similar results are observed when testing Protein #21 (expressed and purified as described in Example 1). The pharmacokinetic properties of the proteins are assessed in cynomolgus monkey as described above at 1 mg/kg, 10 mg/kg and 100 mg/kg. Pharmacokinetic parameters are evaluated as described above.
(§1) For the studies in this example Protein #21-His, Protein #24-His, Protein #28-His, Protein #29-His, and Protein #30-His were prepared according to Example 1. Protein #28-His was additionally PEGylated using a 40 kDa PEG moiety (NOF Sunbright GL2-400MA) by maleimid coupling of the PEG-moiety onto the free C-terminal cysteine of Protein #28-His, followed by purification to homogeneity using standard purification methods, procedures well known to the person skilled in the art. Pharmacokinetic analyses in mouse or cynomolgus monkey were performed as described in Examples 8 and 9.

[5] = Pharmacokinetic analysis in mouse; type: in vivo
Description: The measurements shown in this example are the result of a half-life engineering effort as described in Example 11. Protein #21-His and Protein #23-His were expressed and purified as described in Example 1. The pharmacokinetic properties of the His-tagged proteins were assessed in mouse as described elsewhere (Zahnd, C., Kawe, M., Stumpp, M. T., de Pasquale, C., Tamaskovic, R., Nagy-Davidescu, G., Dreier, B., Schibli, R., Binz, H. K., Waibel, R., Plückthun, A., Cancer Res. 70, 1595-1605, 2010). […] Having SEQ ID NO: 16 present in the recombinant binding protein thus appears to be more favorable than having SEQ ID NO: 18 present.
Polypeptide linkers that link protein domains are well-known to the person skilled in the art. Gly-Ser-rich linkers are well-known from single-chain Fv antibody fragments, where they have proven to be most appropriate to link the two Fv polypeptide chains. […] Protein #26-His and Protein #27-His, were expressed and purified as described in Example 1. Pharmacokinetic analyses in mouse were performed as described in Example 8.
as §1

| Molecule | midpoint of thermal denaturation Tm [1] [°C] | stability upon storage at −80° C. ([2]; 10 mg/ml in PBS, 1 month at −80° C., SDS 15% PAGE) | reduction of degradation products compared to Protein #15-His ([2]; 10 mg/ml in PBS, glass vials, 1 month at 40° C., SDS 15% PAGE) [%] | reduction of degradation products compared to Protein #13-His ([2]; 10 mg/ml in PBS, one week at 40° C., SDS 15% PAGE) [%] | reduction of degradation products compared to Protein #13-His ([2]; 10 mg/ml in PBS, one week at 60° C., SDS 15% PAGE) [%] | degradation upon prolonged incubation ([2]; in PBS at 10 mg/ml at 40° C.) | inhibition of tumor growth ([3]; Protein #21-His 35 mg/kg, Trastuzumab 10 mg/kg, i.v. Q3Dx7, tumor volumes measured for 32 days, FIG. 4A) | tumor suppression compared to Protein #24-His ([3]; after 32 days of treatment, FIG. 4B) | tumor suppression compared to other recombinant binding proteins ([3]; all 35 mg/kg doses, day 18 of treatment, FIG. 4B) | concentration below which target-mediated clearance is observed [4] | terminal half-life ([4]; 1 mg/kg, intravenous infusion) [h] | % ID remaining after 48 hours [5] [% ID] | terminal half-life [5] [h] |
| --- | --- | --- | --- | --- | --- | --- | --- | --- | --- | --- | --- | --- | --- |
| B1 | 89.5 | equivalent stability | > 50 | > 50 | > 50 |  |  |  |  |  |  |  |  |
| B2 | 86 |  |  |  |  | degrade |  |  |  |  |  |  |  |
| B3 |  |  |  |  |  |  | more efficacious in inhibiting tumor growth than Trastuzumab | significantly better tumor suppression than Protein #24-His | more efficacious in suppressing tumors than Protein #23-His, Protein #24-His, or Protein #25-His; also recorded: significantly more efficacious in inhibiting tumor growth than Protein #24-His | below 100 nM | 47 | 19.5 | 30.4 |
